The source of these data is the supplement of paper PMC10567573.

B1: STK38L (parent)
chain: FLPGGDMMTLLMKKDTLTEEETQF
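Further: lentivirally expressed fusions sorted by FACS into six bins by GFP to DsRed ratio, PSI derived from sequencing read proportions per bin multiplied by bin number.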

Variants of B1 are the subject of the series. As to the kind of experiment: protein stability index of a GFP-peptide fusion (GPS, HEK-293T) (PSI 1-6); higher = more stable. The following applies: c terminus: a fixed tail appended.
Regarding FLPGGDMMTLLMKQDTLTEEETQF, the protein stability index was 2.18. Under FLPGGDMMTLLMKSDTLTEEETQF stands 2.69; under FLPGGDMMTLLMKFDTLTEEETQF, 2.39.

In the case of FLPGGDMMTLLMKGDTLTEEETQF, the protein stability index is 2.25.

Take FLPGGDMMTLLMKCDTLTEEETQF: the protein stability index was 2.55. Under FLPGGDMMTLLMKIDTLTEEETQF stands 1.96; under FLPGGDMMTLLMKNDTLTEEETQF, 1.81. Under FLPGGDMMTLLMKADTLTEEETQF stands 2.48. As for FLPGGDMMTLLMKMDTLTEEETQF, the figure is 1.97. Turning to FLPGGDMMTLLMKYDTLTEEETQF, the protein stability index came to 2.09.

Take FLPGGDMMTLLMKDDTLTEEETQF: the protein stability index is 2.92. Under FLPGGDMMTLLMKPDTLTEEETQF stands 2.46; under FLPGGDMMTLLMKRDTLTEEETQF, 1.96. As for FLPGGDMMTLLMKWDTLTEEETQF, the figure is 1.7; as for FLPGGDMMTLLMKTDTLTEEETQF, 2.27. Consider FLPGGDMMTLLMKHDTLTEEETQF, for which the protein stability index is 2.38. Regarding FLPGGDMMTLLMKEDTLTEEETQF, the protein stability index turned out to be 2.88.

Regarding FLPGGDMMTLLMKLDTLTEEETQF, the protein stability index worked out at 1.89.

As to FLPGGDMMTLLMKVDTLTEEETQF, the protein stability index is 1.62. Consider FLPGGDMMTLLTKKDTLTEEETQF, for which the protein stability index is 3.49. As for FLPGGDMMTLLEKKDTLTEEETQF, the figure is 3.68; as for FLPGGDMMTLLAKKDTLTEEETQF, 2.81; as for FLPGGDMMTLLVKKDTLTEEETQF, 3.36. Under FLPGGDMMTLLPKKDTLTEEETQF stands 3.5; under FLPGGDMMTLLGKKDTLTEEETQF, 3.72; under FLPGGDMMTLLYKKDTLTEEETQF, 2.84. As for FLPGGDMMTLLIKKDTLTEEETQF, the figure is 2.56.

Consider FLPGGDMMTLLKKKDTLTEEETQF, for which the protein stability index was determined as 3.69. As for FLPGGDMMTLLCKKDTLTEEETQF, the figure is 3.16; as for FLPGGDMMTLLQKKDTLTEEETQF, 3.25; as for FLPGGDMMTLLSKKDTLTEEETQF, 3.48.

Turning to FLPGGDMMTLLNKKDTLTEEETQF, the protein stability index was 3.86.

FLPGGDMMTLLDKKDTLTEEETQF: the protein stability index is 4.06.

Turning to FLPGGDMMTLLLKKDTLTEEETQF, the protein stability index was 2.35. As to FLPGGDMMTLLWKKDTLTEEETQF, the protein stability index is 1.95. Under FLPGGDMMTLLRKKDTLTEEETQF stands 3.48; under FLPGGDMMTLLHKKDTLTEEETQF, 3.69; under FLPGGDMMTLLFKKDTLTEEETQF, 2.54.

Consider FLPGGDMMTLSMKKDTLTEEETQF, for which the protein stability index is 3.41. As for FLPGGDMMTLEMKKDTLTEEETQF, the protein stability index is 4.25. As for FLPGGDMMTLVMKKDTLTEEETQF, the figure is 3.18; as for FLPGGDMMTLHMKKDTLTEEETQF, 3.43. In the case of FLPGGDMMTLQMKKDTLTEEETQF, the protein stability index came to 3.89. Under FLPGGDMMTLPMKKDTLTEEETQF stands 3.89; under FLPGGDMMTLFMKKDTLTEEETQF, 1.84.

For FLPGGDMMTLKMKKDTLTEEETQF, the protein stability index stood at 3.91. As for FLPGGDMMTLIMKKDTLTEEETQF, the figure is 2.53; as for FLPGGDMMTLYMKKDTLTEEETQF, 2.41; as for FLPGGDMMTLCMKKDTLTEEETQF, 2.63.

Turning to FLPGGDMMTLWMKKDTLTEEETQF, the protein stability index is 1.56. Under FLPGGDMMTLGMKKDTLTEEETQF stands 2.89; under FLPGGDMMTLTMKKDTLTEEETQF, 3.07. Under FLPGGDMMTLMMKKDTLTEEETQF stands 2.56; under FLPGGDMMTLRMKKDTLTEEETQF, 3.29. Under FLPGGDMMTLAMKKDTLTEEETQF stands 3.29; under FLPGGDMMTLNMKKDTLTEEETQF, 3.4; under FLPGGDMMTLDMKKDTLTEEETQF, 4.19. For FLPGGDMMTNLMKKDTLTEEETQF, the protein stability index is 4.26. Take FLPGGDMMTRLMKKDTLTEEETQF: the protein stability index amounted to 3.32. As for FLPGGDMMTVLMKKDTLTEEETQF, the figure is 2.98; as for FLPGGDMMTPLMKKDTLTEEETQF, 3.9. As for FLPGGDMMTTLMKKDTLTEEETQF, the figure is 3.78; as for FLPGGDMMTYLMKKDTLTEEETQF, 2. As to FLPGGDMMTSLMKKDTLTEEETQF, the protein stability index was 4.07. Under FLPGGDMMTMLMKKDTLTEEETQF stands 3.16. Under FLPGGDMMTQLMKKDTLTEEETQF stands 3.91; under FLPGGDMMTWLMKKDTLTEEETQF, 1.98; under FLPGGDMMTLLMKKFTLTEEETQF, 1.94. Consider FLPGGDMMTLLMKKKTLTEEETQF, for which the protein stability index worked out at 1.66. Turning to FLPGGDMMTLLMKKITLTEEETQF, the protein stability index came out at 1.75. As for FLPGGDMMTLLMKKATLTEEETQF, the figure is 1.62. As for FLPGGDMMTLLMKKCTLTEEETQF, the figure is 2.16. With FLPGGDMMTLLMKKHTLTEEETQF, the protein stability index was 2.35. Under FLPGGDMMTLLMKKETLTEEETQF stands 3.01; under FLPGGDMMTLLMKKGTLTEEETQF, 2.05.

On to FLPGGDMMTLLMFKDTLTEEETQF, for which the protein stability index came to 2.21. For FLPGGDMMTLLMYKDTLTEEETQF, the protein stability index worked out at 2.02.

As for FLPGGDMMTLLMCKDTLTEEETQF, the protein stability index came to 1.67. Under FLPGGDMMTLLMSKDTLTEEETQF stands 2.56; under FLPGGDMMTLLMDKDTLTEEETQF, 3.66.

For FLPGGDMMTLLMIKDTLTEEETQF, the protein stability index was 1.87. Under FLPGGDMMTLLMGKDTLTEEETQF stands 2.3; under FLPGGDMMTLLMPKDTLTEEETQF, 2.24. Under FLPGGDMMTLLMWKDTLTEEETQF stands 1.69; under FLPGGDMMTLLMRKDTLTEEETQF, 2.21. As for FLPGGDMMTLLMQKDTLTEEETQF, the figure is 2.42; as for FLPGGDMMTLLMLKDTLTEEETQF, 2.05. With FLPGGDMMTLLMTKDTLTEEETQF, the protein stability index is 2.69. Under FLPGGDMMTLLMHKDTLTEEETQF stands 2.37; under FLPGGDMMTLLMEKDTLTEEETQF, 3.03. For FLPGGDMMTLLMNKDTLTEEETQF, the protein stability index worked out at 2.49.

Consider FLPGGDMMTLLMAKDTLTEEETQF, for which the protein stability index turned out to be 2.21.

For FLPGGDMMTLLMVKDTLTEEETQF, the protein stability index came out at 1.95. Under FLPGGDMMTLLMMKDTLTEEETQF stands 2.28.
